According to paper PMC2632919 (Nucleic Acids Research, 2008):

B1: human mitochondrial single-stranded DNA-binding protein (HmtSSB) (natural protein, UniProt Q04837 17-148, looked up)
chain: ESETTTSLVLERSLNRVHLLGRVGQDPVLRQVEGKNPVTIFSLATNEMWRSGDSEVYQLGDVSQKTTWHRISVFRPGLRDVAYQYVKKGSRIYLEGKIDYGEYMDKNNVRRQATTIIADNIIFLSDQTKEKE

Assays:
AUC = molecular target: the molecule itself; test: AUC
[1] = molecular target: T1, HmtSSB (human mitochondrial SSB) (Homo sapiens, UniProt Q04837 17-148); test: fluorescence anisotropy
T1 sequence: B1 chain

[2] = molecular target: T1, HmtSSB (human mitochondrial SSB); test: fluorescence anisotropy; remark: listed apart in the source

Binder	stoichiometry N (AUC)	apparent K (half saturation) [1] [nM]	Kd [2] [nM]
B1	4		
GTTTTCCCAGTCACGAC (ssDNA) [17-mer]		19.4 ± 4	19.2 ± 3.1
